Literature values in PMC7417478.

How the values were obtained:
[1] = molecular target: FGFR1 (Homo sapiens) (UniProt P11362)
[2] = molecular target: FGFR2 (Homo sapiens) (UniProt P21802)
UniProt P21802, sequence (P21802 22-377): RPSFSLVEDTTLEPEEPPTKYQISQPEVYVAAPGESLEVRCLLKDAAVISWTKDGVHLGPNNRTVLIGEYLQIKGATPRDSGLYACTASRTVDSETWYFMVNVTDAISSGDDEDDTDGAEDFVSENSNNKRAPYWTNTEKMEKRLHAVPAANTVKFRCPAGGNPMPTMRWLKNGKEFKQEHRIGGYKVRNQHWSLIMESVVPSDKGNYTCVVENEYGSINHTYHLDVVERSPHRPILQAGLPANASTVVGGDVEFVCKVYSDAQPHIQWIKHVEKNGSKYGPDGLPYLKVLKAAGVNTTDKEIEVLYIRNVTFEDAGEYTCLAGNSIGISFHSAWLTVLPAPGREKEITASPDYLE

UniProt P11362, sequence (P11362 22-376): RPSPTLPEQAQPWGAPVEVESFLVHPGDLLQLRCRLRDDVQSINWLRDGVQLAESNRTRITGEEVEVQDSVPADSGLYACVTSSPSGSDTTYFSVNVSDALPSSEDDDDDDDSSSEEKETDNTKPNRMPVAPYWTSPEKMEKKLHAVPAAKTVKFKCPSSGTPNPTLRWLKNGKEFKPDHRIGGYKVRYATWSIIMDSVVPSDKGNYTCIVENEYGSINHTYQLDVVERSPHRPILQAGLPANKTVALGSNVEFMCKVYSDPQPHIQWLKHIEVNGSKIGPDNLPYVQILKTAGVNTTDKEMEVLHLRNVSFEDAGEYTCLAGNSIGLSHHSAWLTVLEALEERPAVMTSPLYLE

FGF5 (from UniProt P12034)
Kd [1]: 1 nM
Kd [2]: 1 nM
